± gives the standard deviation of the averaged measurements.
What follows are sequences tested on Saccharomyces cerevisiae (assay: protein stability index of tFT-peptide fusion (C-terminal peptide) (PSI (0-1 scale)); higher = more stable (slower turnover)). Conditions: genetic background: wild type; temperature: 30 C.
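Note: PSI is a weighted mean of sequencing reads over stability bins, variants kept only with over 10 reads, mCherry proximal and sfGFP distal, peptide attached via GGGS linker.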

Row | Sequence | protein stability index
1 | PRLLPPLGFLTF | 0.764 ± 0.075
2 | VVGAIVILRGLR | 0.632 ± 0.018
3 | KKNEVIKKNLRK | 0.616 ± 0.063
4 | PPVPPPDLCSAL | 0.653 ± 0.068
5 | PPTTPHPTPTAP | 0.689 ± 0.033
6 | LLAEPASSRFRP | 0.722 ± 0.029
7 | SCRLYIKVDKSA | 0.6464 ± 0.0034
8 | SFPYPHRDLVTP | 0.7114 ± 0.0016
9 | VRLLGVGGGFTC | 0.701 ± 0.038
10 | EGLVRVCSRHYR | 0.67 ± 0.0083
11 | RGIGIQSVAARN | 0.723 ± 0.094
12 | TYSILLRVNCFK | 0.601 ± 0.004
13 | GGLVGACTRLSG | 0.657 ± 0.035
14 | GPPRDLARKAGL | 0.708 ± 0.065
15 | ACPAPPPPQLPR | 0.593 ± 0.031
16 | GRQKIESSEAQT | 0.666 ± 0.022
17 | LSYSSLGLRFSY | 0.579 ± 0.02
18 | SVLDAVGGSVTA | 0.668 ± 0.092
19 | HGYRWCLHARFG | 0.556 ± 0.058
20 | IDYETIQKYKVE | 0.633 ± 0.011
21 | RGRAVGGARKFG | 0.739 ± 0.029
22 | PPPPPVSSPLVT | 0.657 ± 0.048
23 | DKRHQSALSFFI | 0.736 ± 0.0089
24 | NQSSTSEENSGG | 0.653 ± 0.024
25 | GRRVRAPADFKS | 0.587 ± 0.02
26 | FSRCRRGLVLCL | 0.479 ± 0.045

Row | Sequence | protein stability index
27 | LVCSSVALLSVL | 0.593 ± 0.018
28 | SERYFFFQCGPH | 0.6802 ± 0.0033
29 | KTGNKKQRKKKV | 0.753 ± 0.032
30 | VGPPWSISLSII | 0.636 ± 0.013
31 | HREGTTAFFKTH | 0.536 ± 0.013
32 | GCGARSVQSLGD | 0.707 ± 0.039
33 | TPLNPLYCPPTP | 0.6384 ± 0.0061
34 | VLFPPLCLSFCF | 0.498 ± 0.044
35 | ITSWCNVFLGRA | 0.71 ± 0.018
36 | SLPLPPCLSPLQ | 0.723 ± 0.054
37 | SSYYTGVVTACL | 0.659 ± 0.052
38 | RSRPPPPPLLFP | 0.701 ± 0.043
39 | SGNYRGGLTVFS | 0.711 ± 0.023
40 | SCFGVSRSAHFL | 0.728 ± 0.027
41 | PTKSQNEKTKAE | 0.679 ± 0.037
42 | PPAPRPRSPSPL | 0.719 ± 0.0085
43 | SYSSILPPLSSA | 0.686 ± 0.022
44 | LCFVFDLASLCW | 0.539 ± 0.04
45 | HADFRTLLASRS | 0.67 ± 0.018
46 | SLPLPVFSFPCS | 0.653 ± 0.00069
47 | VPPSCPRPPTAP | 0.676 ± 0.064
48 | EPKLPPCPTPPS | 0.721 ± 0.012
49 | RPGDAASGARGA | 0.691 ± 0.081
50 | WGGGSGRRIGCR | 0.70604 ± 0.00021
51 | PTARIPGLYLFP | 0.695 ± 0.049
52 | QSRAQTFGTSIS | 0.668 ± 0.013

Row | Sequence | protein stability index
53 | SGRMAIYVFGVV | 0.579 ± 0.01
54 | LPVPPPPPLPET | 0.702 ± 0.061
55 | WVPISPFLTPSH | 0.716 ± 0.025
56 | GTYGLCVWGRYL | 0.633 ± 0.056
57 | KKTNTQTKKKTK | 0.709 ± 0.075
58 | LRPGRSKHSSQA | 0.721 ± 0.044
59 | LPFPSCYLRASL | 0.779 ± 0.033
60 | PSSPALIPCRLV | 0.61 ± 0.027
61 | GMCWTEGNTAVL | 0.697 ± 0.06
62 | LPSPPRHPSAPR | 0.683 ± 0.022
63 | VIESRNEEGGRV | 0.727 ± 0.022
64 | SHVLPHPGLSPP | 0.655 ± 0.061
65 | SRSRPLCGVSGV | 0.687 ± 0.052
66 | KNKKEKKKVKRT | 0.687 ± 0.026
67 | AVGPAGSQATIC | 0.706 ± 0.1
68 | PSPLAPPPRLPV | 0.733 ± 0.049
69 | LCPSLLFSSSDP | 0.699 ± 0.024
70 | TRFLRCACCFVC | 0.565 ± 0.036
71 | LTYFSDRFVTRV | 0.6579 ± 0.0051
72 | IPFPSFPASLYR | 0.694 ± 0.021
73 | LAPPTTAGPRPP | 0.599 ± 0.01
74 | GPVAYSMDILVE | 0.66 ± 0.058
75 | PPPPPPPPHLLP | 0.658 ± 0.027
76 | DGKNQGKAEGTK | 0.693 ± 0.041
77 | GYLGEIHLHYVQ | 0.708 ± 0.048
78 | ISHPTPQSVPAI | 0.612 ± 0.0063

Row | Sequence | protein stability index
79 | SLPPPPCLPPLT | 0.675 ± 0.044
80 | VTSTVPRFPQFT | 0.667 ± 0.014
81 | PPLFRPPASAPR | 0.715 ± 0.018
82 | SPPLPPTPPVTT | 0.705 ± 0.19
83 | KKKIERKKNKEK | 0.743 ± 0.071
84 | GTGSEGVALRSG | 0.6697 ± 0.001
85 | CKKGCTEVKNAV | 0.719 ± 0.084
86 | AVLFDQLGGRWR | 0.614 ± 0.061
87 | RSLWGPRVGVFA | 0.594 ± 0.014
88 | LNPPPPPDPPPT | 0.585 ± 0.048
89 | ESAGESRREFGG | 0.693 ± 0.011
90 | NGGRCRIARVLE | 0.679 ± 0.023
91 | RVYFGRPRSIVL | 0.656 ± 0.025
92 | YSSALLHPTSPV | 0.655 ± 0.064
93 | ISPTTFSTHDRC | 0.665 ± 0.077
94 | PIPPPAPPPAPP | 0.6778 ± 0.0036
95 | SSPSPALLFPAR | 0.715 ± 0.036
96 | HWVVRGGSRRVV | 0.7056 ± 0.0045
97 | LLVCVVDREPPI | 0.685 ± 0.019
98 | LLNNTLENQNTL | 0.6645 ± 0.0041
99 | KKKKPKQKQKET | 0.686 ± 0.016
100 | LYSSMFCGTFLL | 0.605 ± 0.048
101 | EAYRVTYPYMYP | 0.726 ± 0.0086
102 | YTTLLVSTNRLS | 0.477 ± 0.082
103 | FLLFIRGFSGCR | 0.624 ± 0.018
104 | WGRTRGDHGGKK | 0.686 ± 0.04

Row | Sequence | protein stability index
105 | HAARFRLPASPC | 0.672 ± 0.051
106 | PPTPPRLHRSPP | 0.69 ± 0.11
107 | LTKHQITKKAER | 0.73 ± 0.078
108 | GGGGWGRGKGCW | 0.719 ± 0.0079
109 | SGGAGGSCMRYV | 0.704 ± 0.022
110 | HLFWSRGICFFR | 0.631 ± 0.062
111 | TRSQTASRSPTG | 0.672 ± 0.017
112 | PSLHPLSPSPPA | 0.686 ± 0.041
113 | ARRAPTFFSLWR | 0.658 ± 0.049
114 | RGRMGLGAPGGG | 0.615 ± 0.0085
115 | KDKKERTTEKKT | 0.693 ± 0.13
116 | PDGFTFVFSPES | 0.648 ± 0.038
117 | LLSPPPAPRPPH | 0.696 ± 0.067
118 | PKSGRAVMQGEG | 0.631 ± 0.071
119 | PEGPTPPSLKLS | 0.6162 ± 0.0052
120 | LPRHKWLPSGLG | 0.686 ± 0.056
121 | SGTLYELNAVVV | 0.644 ± 0.016
122 | RSGGGRRGVGWV | 0.641 ± 0.067
123 | PATPPPLPPLSP | 0.701 ± 0.054
124 | SLRNGESTGLCF | 0.743 ± 0.098
125 | ILGVVLRLCNCQ | 0.7834 ± 0.0055
126 | TTTRSDALPRGG | 0.713 ± 0.024
127 | SISFPPPPRSLT | 0.719 ± 0.08
128 | VLSISINRGVRI | 0.664 ± 0.0039
129 | KTHTIGPSPYYD | 0.649 ± 0.0088
130 | FGFLELTDPHGC | 0.576 ± 0.023

Row | Sequence | protein stability index
131 | WNLESKTEARTR | 0.704 ± 0.049
132 | PPFPLACPPLLF | 0.657 ± 0.11
133 | GRGWGWALGWCG | 0.698 ± 0.0095
134 | YDCPLPPSGLTI | 0.688 ± 0.036
135 | ISVPMPSFGPLP | 0.6938 ± 0.002
136 | PPRPLTPAPSDT | 0.682 ± 0.014
137 | SFMPFVLPLSSP | 0.71 ± 0.023
138 | GGGRGVAVVWVV | 0.61 ± 0.023
139 | FSLSVVGLSRWG | 0.78 ± 0.1
140 | MGVYAVVGTHGV | 0.687 ± 0.079
141 | FGGGGLAPSLQS | 0.602 ± 0.044
142 | LRFRCGNSRILS | 0.724 ± 0.044
143 | LFQFFSPCRIPE | 0.749 ± 0.011
144 | WSRPAGVRSSLA | 0.7039 ± 0.00079
145 | HVRVGRGLAVMC | 0.528 ± 0.027
146 | FGLPFPSNIVSG | 0.757 ± 0.024
147 | PLPPPSPSSLSP | 0.713 ± 0.074
148 | RTRMSEGECIST | 0.708 ± 0.053
149 | PRSPPRSLFFPC | 0.648 ± 0.047
150 | AAVLFVHATSHE | 0.685 ± 0.061
151 | PLSCDSPFVNPT | 0.737 ± 0.042
152 | FGAEWRGVLSGC | 0.773 ± 0.013
153 | FGARVWVGRVGG | 0.657 ± 0.069
154 | TFLMEMVPRLFI | 0.664 ± 0.036
155 | ECVPEVACCPWR | 0.729 ± 0.03
156 | RGRGGGGVVGRW | 0.7119 ± 0.0022

Row | Sequence | protein stability index
157 | GRCIQHPYKVNI | 0.679 ± 0.017
158 | ENLRKLGIALWG | 0.682 ± 0.14
159 | VFLGRWKFFFWG | 0.619 ± 0.023
160 | HPIPHDVSGRRN | 0.784 ± 0.1
161 | GVGAERCFVGVV | 0.681 ± 0.077
162 | DHPFFCWDGVVK | 0.687 ± 0.069
163 | DSVRRMAEGKRE | 0.672 ± 0.029
164 | RRPRKSAAGLRG | 0.768 ± 0.08
165 | YINFQKMRKKFD | 0.723 ± 0.04
166 | SSVNRTADGTKP | 0.69 ± 0.02
167 | WGLCWFGCLWGR | 0.692 ± 0.033
168 | VRRVWYGSFSRL | 0.81 ± 0.012
169 | HPPPCLSLPSSP | 0.731 ± 0.095
170 | PKPNRAHSTTHR | 0.691 ± 0.008
171 | LRGVDSALCGAR | 0.693 ± 0.082
172 | PPASSPRRPTPP | 0.675 ± 0.011
173 | LLLTVMSSPSLL | 0.645 ± 0.027
174 | RACGVSMRIKGG | 0.695 ± 0.033
175 | RFPFGPAPPPTP | 0.744 ± 0.042
176 | FSLTPSDPFPPA | 0.681 ± 0.043
177 | HPPPETEPIPVA | 0.574 ± 0.066
178 | IINKRITKETDE | 0.6738 ± 0.0023
179 | LILHVGWDSQLG | 0.667 ± 0.085
180 | GLGGRVWSDMGG | 0.745 ± 0.11
181 | SSGASTSIVSTL | 0.678 ± 0.015
182 | LLQFYWRPCRGY | 0.699 ± 0.013

Row | Sequence | protein stability index
183 | PGPPSTAPHLPE | 0.659 ± 0.018
184 | STRLFTHPRFLP | 0.68 ± 0.013
185 | GDLASASAWGVR | 0.681 ± 0.026
186 | GDPWLGVRNAVG | 0.749 ± 0.22
187 | IHTNICKSKDII | 0.706 ± 0.025
188 | TGWRFVRSKGGS | 0.741 ± 0.045
189 | HTKYISRRRTKR | 0.706 ± 0.013
190 | FCGDDVCLTHFG | 0.729 ± 0.029
191 | LAPPPAAPLSHS | 0.697 ± 0.018
192 | SRNFSIQILRER | 0.659 ± 0.019
193 | PSSPLSPAPPPP | 0.659 ± 0.015
194 | GLYCDDSYPRPH | 0.666 ± 0.1
195 | WVAADTDGEPKH | 0.6986 ± 0.0057
196 | PLTNPPCLTKYP | 0.793 ± 0.033
197 | GVQDVRAGLLEY | 0.676 ± 0.037
198 | RILIRVQSSKLR | 0.671 ± 0.09
199 | CFWTSFVWPGCA | 0.684 ± 0.00095
200 | RLLASIRAAQAS | 0.525 ± 0.1
201 | HSSSGTHRIKKT | 0.667 ± 0.052
202 | GVIGGLRAGVGG | 0.719 ± 0.079
